These results are taken from PMC6260798 (Biochemistry, 2018).

Like-named read-outs stand apart in the source and are kept apart here.

The target in assay [1] is T1, UreE (Helicobacter pylori, UniProt Q09064).
T1 chain: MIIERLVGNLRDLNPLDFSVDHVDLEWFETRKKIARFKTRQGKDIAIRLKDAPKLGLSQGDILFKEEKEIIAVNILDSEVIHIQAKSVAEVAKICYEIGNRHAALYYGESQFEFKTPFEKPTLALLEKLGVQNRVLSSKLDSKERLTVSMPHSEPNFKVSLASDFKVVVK
In words: ITC. On the technique in general: In ITC the heat of successive injections is recorded.

Assay [2] addresses T1, UreE. In words: fluorescence titration.
In assay [3] the target is T2, Helicobacter pylori UreE homodimer (UreE2) (Helicobacter pylori, UniProt Q09064 1-170).
T2 sequence: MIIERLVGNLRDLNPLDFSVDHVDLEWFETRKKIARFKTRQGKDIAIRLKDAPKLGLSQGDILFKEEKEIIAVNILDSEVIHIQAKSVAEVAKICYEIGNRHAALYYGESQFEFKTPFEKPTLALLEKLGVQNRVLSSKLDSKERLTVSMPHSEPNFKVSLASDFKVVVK
The assay is described as follows: ITC.

In assay [4] the target is T2, Helicobacter pylori UreE homodimer …. In words: ITC. The source holds these as a separate data set.
For assay [5] the target is unchanged. The assay is described as follows: SEC-MALS. (In general: SEC sorts molecules by how far they enter the pores of the column.)

B1: HypA (protein)
chain: MHEYSVVSSLIALCEEHAKKNQAHKIERVVVGIGERSAMDKSLFVSAFETFREESLVCKDAILDIVDEKVELECKDCSHVFKPNALDYGVCEKCHSKNVIITQGNEMRLLSLEMLAE
modifications: Ni,Zn-HypA
In general, Kd refers to the constant that tells how readily two partners part at equilibrium. High values mean weaker binding, low ones tighter binding. For the molecule B1, the Kd in the assay with UreE [1] was approximately 0.6 nM.

B2: HypA (protein)
chain: MHEYSVVSSLIALCEEHAKKNQAHKIERVVVGIGERSAMDKSLFVSAFETFREESLVCKDAILDIVDEKVELECKDCSHVFKPNALDYGVCEKCHSKNVIITQGNEMRLLSLEMLAE
modifications: apo,Zn-HypA, NHS640-labelled UreE2
Consider B2, for which the Kd with UreE [2] was approximately 2000 nM.

B3: Helicobacter pylori HypA (wild type; apo,Zn-HypA or Ni,Zn-HypA) (natural protein, UniProt P0A0U4 1-117, looked up)
chain: MHEYSVVSSLIALCEEHAKKNQAHKIERVVVGIGERSAMDKSLFVSAFETFREESLVCKDAILDIVDEKVELECKDCSHVFKPNALDYGVCEKCHSKNVIITQGNEMRLLSLEMLAE
One may read the stoichiometry N as a count of units in the complex or per binding partner. On to B3, for which the Kd was 900 nM in assay [3] and 1200 nM in assay [4]. Besides, the “stoichiometry N” value in assay [3] came out at 1.4 Sites; in assay [4], 1.4 Sites; in assay [5], 1 HypA per UreE2.
